# Experimental data: PMC4117452, “Immunolocalization of Anti-Hsf1 to the Acetabular Glands of Infectious Schistosomes Suggests a Non-Transcriptional Function for This Transcriptional Activator”
# Molecular target: T1, MBP-SmHsf1 (Schistosoma mansoni, UniProt G4VTC5 1-658)
# T1 sequence: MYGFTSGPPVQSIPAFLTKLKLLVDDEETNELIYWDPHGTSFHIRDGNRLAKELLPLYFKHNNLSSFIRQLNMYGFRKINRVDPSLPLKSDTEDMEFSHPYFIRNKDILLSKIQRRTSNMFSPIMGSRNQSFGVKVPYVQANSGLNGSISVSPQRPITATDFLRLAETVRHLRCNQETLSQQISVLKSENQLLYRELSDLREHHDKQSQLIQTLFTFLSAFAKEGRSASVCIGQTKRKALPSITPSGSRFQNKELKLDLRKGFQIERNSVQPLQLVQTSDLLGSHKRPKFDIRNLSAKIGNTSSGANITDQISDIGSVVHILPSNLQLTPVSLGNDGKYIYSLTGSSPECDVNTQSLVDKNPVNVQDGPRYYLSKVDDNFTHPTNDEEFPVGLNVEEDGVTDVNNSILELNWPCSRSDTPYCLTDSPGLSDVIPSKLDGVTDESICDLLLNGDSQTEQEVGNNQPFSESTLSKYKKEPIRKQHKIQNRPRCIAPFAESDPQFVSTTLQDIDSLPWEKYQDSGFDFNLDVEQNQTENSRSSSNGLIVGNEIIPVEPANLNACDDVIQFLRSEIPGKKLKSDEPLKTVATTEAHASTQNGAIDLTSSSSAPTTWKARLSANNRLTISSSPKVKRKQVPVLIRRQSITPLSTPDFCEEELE
# Test: competition; EMSA vs oKI068(ds), 250-fold unlabeled; 'great affinity'; LightShift EMSA binding buffer with glycerol, MgCl2, poly-dIdC, NP-40 (concentrations, pH and temperature not stated), 30 min; 5% native PAGE, 0.5x TBE
# Conditions: protein: recombinant; tags: N-terminal MBP (pMAL-c5X); chain copies: 3; blunt
binder,measurement,value
oKI073/074 consensus HSE (dsDNA) DNA 1: GATCGTCATAGAAAGTTCTAGAACGATC DNA 2: GATCGTTCTAGAACTTTCTATGACGATC,binding result,binds
